In patent US20190201496A1 (published 2019) one finds Kd data, which are given here for five molecules.

Read-outs that look alike come from different tables or passages of the source.

The term Kd denotes the free concentration of one partner at which half of the binding sites on the other are occupied at equilibrium, for simple one-to-one binding. The low end stands for higher affinity, the high end for lower affinity.

Common to all, as to assay: SPR; pH 6
A general note: In SPR one partner is held on a chip, and binding of the other changes the refractive index at the surface.

For experiment [1], the target named is T1, human β2-microglobulin (UniProt P61769 21-119).
T1 sequence (P61769 21-119): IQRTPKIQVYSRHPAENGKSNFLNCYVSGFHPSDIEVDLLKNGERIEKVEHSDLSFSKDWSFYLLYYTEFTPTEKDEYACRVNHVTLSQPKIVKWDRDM
In a further experiment the target is T2, HLA-A2:01 (human, UniProt A*02:01, biotinylated (site not stated)).
T2 chain: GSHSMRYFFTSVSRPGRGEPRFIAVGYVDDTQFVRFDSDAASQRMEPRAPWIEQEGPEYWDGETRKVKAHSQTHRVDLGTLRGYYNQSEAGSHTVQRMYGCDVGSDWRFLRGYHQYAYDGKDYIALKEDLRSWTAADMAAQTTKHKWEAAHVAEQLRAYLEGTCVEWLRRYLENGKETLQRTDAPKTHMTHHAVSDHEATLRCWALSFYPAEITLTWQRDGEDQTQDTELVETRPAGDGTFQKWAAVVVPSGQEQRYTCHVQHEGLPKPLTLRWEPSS

The target of a further experiment is mβ2m.
Experiment [2] concerns the target T1, human β2-microglobulin. The source holds these as a separate data set.

B1: hAFP N-His (protein)
chain: RTLHRNEYGIASILDSYQCTAEISLADLATIFFAQFVQEATYKEVSKMVKDALTAIEKPTGDEQSSGCLENQLPAFLEELCHEKEILEKYGHSDCCSQSEEGRHNCFLAHKKPTPASIPLFQVPEPVTSCEAYEEDRETFMNKFIYEIARRHPFLYAPTILLWAARYDKIIPSCCKAENAVECFQTKAATVTKELRESSLLNQHACAVMKNFGTRTFQAITVTKLSQKFTKVNFTEIQKLVLDVAHVHEHCCRGDVLDCLQDGEKIMSYICSQQDTLSNKITECCKLTTLERGQCIIHAENDEKPEGLSPNLNRFLGDRDFNQFSSGEKNIFLASFVHEYSRRHPQLAVSVILRVAKGYQELLEKCFQTENPLECQDKGEEELQKYIQESQALAKRSCGLFQKLGEYYLQNAFLVAYTKKAPQLTSSELMAITRKMAATAATCCQLSEDKLLACGEGAADIIIGHLCIRHEMTPVNPGVGQCCTSSYANRRPCFSSLVVDETYVPPAFSDDKFIFHKDLCQAQGVALQTMKQEFLINLVKQKPQITEEQLEAVIADFSGLLEKCCQGQEQEVCFAEEGQKLISKTRAALGV
B1: in the experiment with human β2-microglobulin [1], the Kd is 96.9 nM.

B2: human AFP derived from cord blood (ligand)
chain: B1 chain
With B2, the Kd in the experiment with human β2-microglobulin [1] was 193 nM.

B3: AFP (ligand)
chain: B1 chain
For the molecule B3, the dissociation constant Kd with HLA-A2:01 was found to be 35.9 nM.

B4: hAFP cord (ligand)
chain: B1 chain
The molecule B4 came in with a Kd in the experiment with mβ2m of 167 nM. In other words, the sub-micromolar range.

B5: human alpha-fetoprotein (AFP) (ligand)
chain: B1 chain
Molecule B5 gave a Kd in the experiment with human β2-microglobulin [2] of 125 nM.
